The source of these data is PMC2866327, “Designed Inhibitors of Insulin-Degrading Enzyme Regulate the Catabolism and Activity of Insulin” (PLoS ONE, 2010).

Holding throughout (settings): modification not given
In test [1] the target is T1, insulin-degrading enzyme (recombinant human IDE) (human), P14735.
Test [2] has as its target T1, insulin-degrading enzyme (recombinant …). This is another data set of the same source.
Test [3] shares this target. The source holds these as a separate data set.
Test [4] has the same target. The source holds these as a separate data set.
Test [5] shares this target. The source holds these as a separate data set.
For test [6] the target is unchanged. This is another data set of the same source.

Like-named read-outs stand apart in the source and are kept apart here. Square brackets hold non-standard residues; d marks the D form. Ends that are not written are not given here. 1Nal = N[C@@H](Cc1cccc2ccccc12)C(=O)O; diphenylalanine = not defined here

On to FRY [4-fluorophenylalanine], for which the Ki in test [1] was 7 µM.
Turning to [diphenylalanine]-Arg-Tyr (reading uncertain) [diphenylalanine], in test [2], the Ki was > 500 µM.
As to FRY [4-(tert-butyl)-phenylalanine], the Ki in test [3] came out at 16 µM.
With FRY [3-fluorophenylalanine], the Ki in test [4] was determined as 7 µM.
As for [2‑benzothiophenylalanine]-Arg-Tyr [2-benzothiophenylalanine], the Ki in test [5] amounted to 1.1 µM.
With [1Nal]-Arg-Tyr [1-naphthylalanine], the Ki in test [6] is 0.7 µM.

The term Ki denotes a measure of affinity in units of concentration, obtained from inhibition or displacement.
